# Test results published in US20110008376.
# T1: nOVA (untreated ovalbumin, 1 mg/ml in PBS), P01012
# T1 chain: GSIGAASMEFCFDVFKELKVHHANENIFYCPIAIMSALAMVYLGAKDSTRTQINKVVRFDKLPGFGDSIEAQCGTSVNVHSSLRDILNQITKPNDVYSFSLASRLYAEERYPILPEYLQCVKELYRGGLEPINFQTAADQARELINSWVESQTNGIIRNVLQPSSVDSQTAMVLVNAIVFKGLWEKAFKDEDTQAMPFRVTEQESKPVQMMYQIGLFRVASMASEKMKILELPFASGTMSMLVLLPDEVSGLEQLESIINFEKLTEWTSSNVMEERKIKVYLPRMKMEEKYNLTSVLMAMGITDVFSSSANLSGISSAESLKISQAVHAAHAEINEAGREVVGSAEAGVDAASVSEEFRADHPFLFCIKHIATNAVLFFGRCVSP
# T2: dOVA-1 (misfolded ovalbumin comprising crossbeta, acid treated), P01012
# T2 chain: T1 chain
# T3: dOVA-2 (misfolded ovalbumin comprising crossbeta, cyclic heating 30-85 C), P01012
# T3 chain: T1 chain
# T4: dOVA-3 (misfolded ovalbumin comprising crossbeta, about 16 h at 75 C), P01012
# T4 chain: T1 chain
# B1: tissue type plasminogen activator (tPA) (protein)
# chain: SYQVICRDEKTQMIYQQHQSWLRPVLRSNRVEYCWCNSGRAQCHSVPVKSCSEPRCFNGGTCQQALYFSDFVCQCPEGFAGKCCEIDTRATCYEDQGISYRGTWSTAESGAECTNWNSSALAQKPYSGRRPDAIRLGLGNHNYCRNPDRDSKPWCYVFKAGKYSSEFCSTPACSEGNSDCYFGNGSAYRGTHSLTESGASCLPWNSMILIGKVYTAQNPSAQALGLGKHNYCRNPDGDAKPWCHVLKNRRLTWEYCDVPSCSTCGLRQYSQPQFRIKGGLFADIASHPWQAAIFAKHRRSPGERFLCGGILISSCWILSAAHCFQERFPPHHLTVILGRTYRVVPGEEEQKFEVEKYIVHKEFDDDTYDNDIALLQLKSDSSRCAQESSVVRTVCLPPADLQLPDWTECELSGYGKHEALSPFYSERLKEAHVRLYPSSRCTSQHLLNRTVTDNMLCAGDTRSGGPQANLHDACQGDSGGPLVCLNDGRMTLVGIISWGLGCGQKDVPGVYTKVTNYLDWIRDNMRP
# Tests used:
# [1] = molecular target: T1, nOVA (untreated ovalbumin, 1 mg/ml in …)
# [2] = molecular target: cH5-1 (misfolded H5 of A/VN/1203/04, heat cycling)
# [3] = molecular target: cH5-4 (glycated H5 of A/VN/1203/04)
# [4] = molecular target: cH5-3 (misfolded H5 of A/VN/1203/04, heat cycling at pH 12)
# [5] = molecular target: T2, dOVA-1 (misfolded ovalbumin comprising …)
# [6] = molecular target: T3, dOVA-2 (misfolded ovalbumin comprising …)
# [7] = molecular target: nH5 (non-treated H5 of H5N1 strain A/Vietnam/1203/04, first example)
# [8] = molecular target: T4, dOVA-3 (misfolded ovalbumin comprising …)
# [9] = molecular target: cH5-2 (misfolded H5 of A/VN/1203/04, heat cycling at pH 2)
protein,measurement,setting,value
B1,"tPA activation potency, Activation at 10 µg/mL",[1],48.8%
same,"tPA activation potency, Activation at 25 µg/mL",[1],48.1%
same,tPA mediated plasminogen activation assay,[2],cH5-1 (50% of standard)
same,tPA mediated plasminogen activation assay,[3],cH5-4 (37% of standard)
same,tPA mediated plasminogen activation assay,[4],cH5-3 (200% of standard)
same,"tPA activation potency, Activation at 10 µg/mL",[5],97.4%
same,"tPA activation potency, Activation at 25 µg/mL",[5],136%
same,"tPA activation potency, Activation at 10 µg/mL",[6],107%
same,"tPA activation potency, Activation at 25 µg/mL",[6],107%
same,"tPA-mediated plasminogen activation (plasmin chromogenic substrate), reference dOVA-2 at 80 µg/mL",[6],100%
same,"tPA/Plg activating potential, crossbeta ovalbumin standard at 10 µg/ml",[6],"at 10 and 50 µg/ml, tPA/plg activation is 100% and 85%, respectively"
same,"tPA/Plg activating potential, crossbeta ovalbumin standard at 30 µg/ml",[6],The activating potential of crossbeta ovalbumin standard at 30 µg/ml is set to 100%
same,"tPA/Plg activating potential, crossbeta ovalbumin standard at 50 µg/ml",[6],"at 10 and 50 µg/ml, tPA/plg activation is 100% and 85%, respectively"
same,tPA mediated plasminogen activation assay,[7],nH5 (140% of standard)
same,"tPA activation potency, Activation at 10 µg/mL",[8],60.9%
same,"tPA activation potency, Activation at 25 µg/mL",[8],79%
same,tPA mediated plasminogen activation assay,[9],cH5-2 (150% of standard)
